Results taken from patent publication US20100298541A1 (published 2010).
Residue numbers refer to the chain shown, from its start.

B1: 1E05 (designed binder)
chain: IEVKDVTDTTALITWSPCSPCQLVTGCELTYGIKDVPGDRTTIDLSCTRAKYSIGNLKPDTEYEVSLICINKLGDTSNPAKETFTT
B2: 1C10 (designed binder)
chain: IEVKDVTDTTALITWSPCCPYDRYTGCELTYGIKDVPGDRTTIDLQSSRSHYSIGNLKPDTEYEVSLICITTFGHVSNPAKETFTT
B3: 1C06 (designed binder)
chain: IEVKDVTDTTALITWSPRMYTWIQTGCELTYGIKDVPGDRTTIDLTHLSGSYSIGNLKPDTEYEVSLICLKLTRTHISKETFTT
B4: 1H05 (designed binder)
chain: IEVKDVTDTTALITWSPGMFDQVRTGCELTYGIKDVPGDRTTIDLGKYWERYSIGNLKPDTEYEVSLICRNQYGQHQSKETFTT
B5: 2B04 (designed binder)
chain: IEVKDVTDTTALITWAPPMLTDSEINGCELTYGIKDVPGDRTTIDLTSSYWSYSIGNLKPDTEYEVSLICSTLRRNAISKETFTT
notes: also called 2B4
B6: 2A11 (designed binder)
chain: IEVKDVTDTTALITWSPPFRAGHVTGCELTYGIKDVPGDRTTIDLVTARCQYSIGNLKPDTEYEVSLICTTGNGLRSNPAKETFTT
B7: 2D3 (designed binder)
chain: IEVKDVTDTTALITWSPGGFQKITTGCELTYGIKDVPGDRTTIDLVNRRNHYSIGNLKPDTEYEVSLICLTYKARAISKETFTT
B8: 1D8 (designed binder)
chain: IEVKDVTDTTALITWSPCQMLSSLTGCELTYGIKDVPGDRTTIDLNIERPKYSIGNLKPDTEYEVSLICFTMTGYRSNPAKETFTT
B9: 1A03 (designed binder)
chain: IEVKDVTDTTALITWAPPPFSNSCIIGCELTYGIKDVPGDRTTIDLRPGRASYSIGNLKPDTEYEVSLICSTGTGLPSNPAKETFTT
B10: 2G03 (designed binder)
chain: IEVKDVTDTTALITWSPGPLLRHTTGCELTYGIKDVPGDRTTIDLRPIPRAYSIGNLKPDTEYEVSLICRNRPQQSNPAKETFTT
B11: 1B12 (designed binder)
chain: IEVKDVTDTTALITWAKPRQGGSNISGCELTYGIKDVPGDRTTIDLYHKGLHYSIGNLKPDTEYEVSLICPKMTGYTYSKETFTT
B12: 2F02 (designed binder)
chain: IEVKDVTDTTALITWSPSRGGTSLTGCELTYGIKDVPGDRTTIDLDQVRATYSIGNLKPDTEYEVSLICHTNSGQPSNPAKETFTT
B13: 1B04 (designed binder)
chain: IEVKDVTDTTALITWSPSHGVESSTGCELTYGIKDVPGDRTTIDLHGLQRVYSIGNLKPDTEYEVSLICAKICGHLVSKETFTT
B14: 3B11 (designed binder)
chain: IEVKDVTDTTALITWSPCQLLALITGCELTYGIKDVPGDRTTIDLNSRHYHYSIGNLKPDTEYEVSLICYTSTGQRSNPAKETFTT
B15: 2F08 (designed binder)
chain: IEVKDVTDTTALITWSHAGGIRIGCELTYGIKDVPGDRTTIDLHVWQVYYSIGNLKPDTEYEVSLICMTPYLLGNPAKETFTT
B16: 1C12 (designed binder)
chain: IEVKDVTDTTALITWAKPEKWDGSIYGCELTYGIKDVPGDRTTIDLNSRHTAYSIGNLKPDTEYEVSLICFTPYGAKSNPAKETFTT
notes: also called monomeric 1C12
B17: 1G11 (designed binder)
chain: IEVKDVTDTTALITWSWAQANPGGCELTYGIKDVPGDRTTIDLWHSITFYSIGNLKPDTEYEVSLICKTKVQSSNPAKETFTT
B18: 2A12 (designed binder)
chain: IEVKDVTDTTALITWSPCCQEFTLTGCELTYGIKDVPGDRTTIDLHNHHHHYSIGNLKPDTEYEVSLICITDAGNKSNPAKETFTT
B19: 1E03 (designed binder)
chain: IEVKDVTDTTALITWAAPFFGSSYISGCELTYGIKDVPGDRTTIDLHYYVTRYSIGNLKPDTEYEVSLICVNLSGHMPSKETFTT
notes: also called 1E3
B20: 7G11 (designed binder)
chain: IEVKDVTDTTALITWAKPSIVNGFISGCELTYGIKDVPGDRTTIDLTEDENQYSIGNLKPDTEYEVSLICDKCFGAMKSKETFTT
B21: 10D9 (designed binder)
chain: IEVKDVTDTTALITWSPPLFCCQKTGCELTYGIKDVPGDRTTIDLTEDENQYSIGNLKPDTEYEVSLICFKLTGFLYSKETFTT
notes: Lower case q in the BC loop is a TAG codon read as glutamine in the suppressor strain
B22: 2F4 (designed binder)
chain: IEVKDVTDTTALITWSPCIMVCLRTGCELTYGIKDVPGDRTTIDLTEDENQYSIGNLKPDTEYEVSLICRRGDMSGAPAKETFTT
B23: 5B10 (designed binder)
chain: B22 chain with I19L, M20F
B24: 2H6 (designed binder)
chain: IEVKDVTDTTALITWATPSVFDSHIEGCELTYGIKDVPGDRTTIDLTEDENQYSIGNLKPDTEYEVSLICWKHHGDAWSKETFTT
B25: 6C7 (designed binder)
chain: IEVKDVTDTTALITWAKPMSCSGYIQGCELTYGIKDVPGDRTTIDLTEDENQYSIGNLKPDTEYEVSLICAKLTGWLCSKETFTT
notes: Lower case q is a TAG codon read as glutamine
B26: 6F11 (designed binder)
chain: IEVKDVTDTTALITWSPSVARMLETGCELTYGIKDVPGDRTTIDLTEDENQYSIGNLKPDTEYEVSLICITLCGRGVSKETFTT
B27: 8B3 (designed binder)
chain: IEVKDVTDTTALITWSPPEYAFYYTGCELTYGIKDVPGDRTTIDLTEDENQYSIGNLKPDTEYEVSLICVKNCGLFSNPAKETFTT
B28: D1-Cκ/D1-IGHG1 (other)
light: IEVKDVTDTTALITWSPGERIWMFTGCELTYGIKDVPGDRTTIDLTEDENQYSIGNLKPDTEYEVSLICPNYERISNPAKETFTTGGGTPT
heavy: B28 light
notes: Control two chain tetravalent construct of D1; not shown: human C-kappa region (constant region of an antibody kappa light chain); heavy chain constant region of human IgG1 (IGHG1)
B29: D1-Fc (Fc fusion)
chain: IEVKDVTDTTALITWSPGERIWMFTGCELTYGIKDVPGDRTTIDLTEDENQYSIGNLKPDTEYEVSLICPNYERISNPAKETFTTGA
notes: not shown: hinge and Fc region of human IgG1
B30: SynBP01 (designed binder)
chain: AAIEVKDVTDTTALITWSPPSVLVGYTIELTYGIKDVPGDRTTIDLTEDENQYSIGNLKPDTEYEVSLISVTEFGRRRSKETFTTGGGTLEHHHHHH
notes: also called SYNAGIS® specific Tn3 scaffold
B31: 5E5 (designed binder)
chain: IEVKDVTDTTALITWSLAPGYRLGCELTYGIKDVPGDRTTIDLTEDENQYSIGNLKPDTEYEVSLICVKLCMRGNPAKETFTT
notes: also called TRAIL-R2 specific clone 5E5
B32: SynBP01-Fc (Fc fusion)
chain: IEVKDVTDTTALITWSPPSVLVGYTIELTYGIKDVPGDRTTIDLTEDENQYSIGNLKPDTEYEVSLISVTEFGRRRSKETFTT
notes: Chimeric fusion made in 293EBNA cells from pOE-SynBP01; Called bivalent; also called SynBP01 scaffold fused to an Fc region; not shown: CH2 and CH3 domains of IgG1 Fc from the pOE-Fc vector

molecular target: T1, TRAIL-R2/Fc fusion protein (R & D Systems) (UniProt O14763 54-182, limits assumed); assay: TRAIL-R2 phage ELISA
T1 construct: not shown: Fc part of the bought fusion; captured with anti-human IgG Fc antibody
T1 sequence (O14763 54-182 limits assumed): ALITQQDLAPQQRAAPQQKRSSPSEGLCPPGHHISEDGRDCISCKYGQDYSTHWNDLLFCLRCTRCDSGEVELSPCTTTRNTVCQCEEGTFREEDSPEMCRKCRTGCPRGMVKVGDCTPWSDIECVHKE

Binder | binding result
B1 | binds
B2 | binds
B3 | binds
B4 | binds
B5 | binds
B6 | binds
B7 | binds
B8 | binds
B9 | binds
B10 | binds
B11 | binds
B12 | binds
B13 | binds
B14 | binds
B15 | binds
B16 | binds
B17 | binds
B18 | binds
B19 | binds

molecular target: T1, TRAIL-R2/Fc fusion protein (R & D …); assay: TRAIL-R2 phage ELISA; remark: another data set of the same source

Binder | binding result
B20 | binds
B21 | binds
B22 | binds
B23 | binds
B24 | binds
B25 | binds
B26 | binds
B27 | binds

molecular target: T1, TRAIL-R2/Fc fusion protein (R & D …); assay: Attana biosensor, TRAIL-R2 chip
Experimental: A qualitative comparison of binding by monomeric 1C12, 1C12-Fc and 1C12-Cκ/1C12-IGHG1 proteins was performed by injecting samples of each of these proteins over a TRAIL-R2 chip on an Attana biosensor instrument.

Binder | binding result
B28 | no binding
B29 | no binding

molecular target: SYNAGIS®; assay: SPR (BIAcore 3000), SYNAGIS® amine-coupled to the chip, equilibrium binding of SynBP01
Sequence (VH, as listed by the source, chain 1 of 2): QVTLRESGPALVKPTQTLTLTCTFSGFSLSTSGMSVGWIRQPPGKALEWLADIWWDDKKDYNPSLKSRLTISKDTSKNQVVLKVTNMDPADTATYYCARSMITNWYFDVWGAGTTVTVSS
Sequence (VL, as listed by the source, chain 2 of 2): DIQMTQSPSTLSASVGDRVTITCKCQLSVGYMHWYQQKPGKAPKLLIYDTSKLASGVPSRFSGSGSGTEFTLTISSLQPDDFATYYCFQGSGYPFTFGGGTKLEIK

Binder | Kd [µM]
B30 | 16

molecular target: T1, TRAIL-R2/Fc fusion protein (R & D …); assay: SPR (BIAcore), TRAIL-R2/Fc captured on goat anti-human-Fc IgG, 5E5 injected; from kon and koff
Experimental: Goat anti-human-Fc IgG was immobilized at a density of ˜7700 RUs onto a flow cell of a CM5 Biacore sensor chip surfaces using a standard amino coupling protocol (BIAcore, Inc.). Separately, a blank surface was also prepared on the same chip using the identical coupling protocol, minus the protein. This blank surface was used as a reference cell throughout the experiment, and served to correct for both non-specific binding and certain housekeeping artifacts.
After baseline stabilization, solutions of the Tn3 clone 5E5 (Table 7) were injected over both the captured ligand and control surfaces. Between injections, the Fc-capture surface was regenerated with two 1 min. injections of 10 mM Gly, pH2.
Several buffer and control protein injections were also interspersed throughout the injection series. Later, these buffer injections were used, along with the reference cell data, to correct the raw data sets for injection artifacts and/or non-specific ‘binding’ through a technique commonly referred to as “double-referencing.” (Myszka, D. G. (1999) J. Mol. Recognit. 12, pp. 279-284). Sensorgram overlays of the fully corrected data were generated using the BIAevaluation 4.1 software (BIAcore, Inc, Uppsala, Sweden). The affinity of 5E5 for binding to TRAIL-R2 was calculated by measuring the kₒₙ and koff.values in the BIAevaluation software for the sensorgram shown in FIG. 13.

Binder | Kd [µM]
B31 | ~0.7

molecular target: SYNAGIS®; assay: SPR (BIAcore 3000), SYNAGIS® immobilized, both injected at 1 µM

Binder | fold increase in total response units compared to SynBP01 [fold]
B32 | ~6
